Target: the molecule itself
Experiment: cryo-EM structure

B1: Human TMEM175 (transmembrane protein 175) (natural protein)
chain: MSQPRTPEQALDTPGDCPPGRRDEDAGEGIQCSQRMLSFSDALLSIIATVMILPVTHTEISPEQQFDRSVQRLLATRIAVYLMTFLIVTVAWAAHTRLFQVVGKTDDTLALLNLACMMTITFLPYTFSLMVTFPDVPLGIFLFCVCVIAIGVVQALIVGYAFHFPHLLSPQIQRSAHRALYRRHVLGIVLQGPALCFAAAIFSLFFVPLSYLLMVTVILLPYVSKVTGWCRDRLLGHREPSAHPVEVFSFDLHEPLSKERVEAFSDGVYAIVATLLILDICEDNVPDPKDVKERFSGSLVAALSATGPRFLAYFGSFATVGLLWFAHHSLFLHVRKATRAMGLLNTLSLAFVGGLPLAYQQTSAFARQPRDELERVRVSCTIIFLASIFQLAMWTTALLHQAETLQPSVWFGGREHVLMFAKLALYPCASLLAFASTCLLSRFSVGIFHLMQIAVPCAFLLLRLLVGLALATLRVLRGLARPEHPPPAPTGQDDPQSQLLPAPC
Q: With B1 as the protein, how does the “stoichiometry N” value read?
A: The value was 2.
